In paper PMC4075986 one finds Ka data, which are given here for one substance.

The experiment concerns the target chicken pectoral skeletal muscle actin (F-actin) (chicken) (UniProt P68139). Nature of the experiment: co-sedimentation.

rat tropomyosin Tm5a (natural protein) had a Ka of 1.7e+06 M⁻¹.
